The target of data set [1] is T1, CNBP (ZNF9) (Homo sapiens, UniProt P62633 1-177). Put plainly: CD (G4 unfolding); 100 mM K+ folding; 8 uM, 1:1; EMSA: 20 mM HEPES pH 8.0, 10 mM MgCl2, 1 mM EDTA, 0.5 ug/uL heparin, 1 mM DTT, 1 ug/uL BSA, 10% glycerol, 100 mM KCl or LiCl, 0.75 uM RNA, 30 min 37 C; CD: 10 mM Tris-HCl pH 7.5 + 100/200 mM KCl, protein incubation 30 min 37 C, spectra at 20 C. As to conditions: protein: recombinant; tags: tag-free (expressed from pET-32a-TEV-CNBP, tag removed); intramolecular G4. In general terms: Mobility shift assays separate free from complexed probe on a gel.
T1 sequence (P62633 whole entry): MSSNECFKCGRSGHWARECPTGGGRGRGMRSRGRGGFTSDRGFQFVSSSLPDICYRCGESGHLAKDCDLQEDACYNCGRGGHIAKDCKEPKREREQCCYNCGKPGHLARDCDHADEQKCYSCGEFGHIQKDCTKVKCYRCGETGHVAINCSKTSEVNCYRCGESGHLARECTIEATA

Data set [2] has as its target T1, CNBP (ZNF9). The data set is described as follows: CD (G4 unfolding); 200 mM K+ folding; 8 uM, 1:1; EMSA: 20 mM HEPES pH 8.0, 10 mM MgCl2, 1 mM EDTA, 0.5 ug/uL heparin, 1 mM DTT, 1 ug/uL BSA, 10% glycerol, 100 mM KCl or LiCl, 0.75 uM RNA, 30 min 37 C; CD: 10 mM Tris-HCl pH 7.5 + 100/200 mM KCl, protein incubation 30 min 37 C, spectra at 20 C. As to conditions: protein: recombinant; tags: tag-free (expressed from pET-32a-TEV-CNBP, tag removed); intramolecular G4.

For data set [3], the target named is T1, CNBP (ZNF9). Put plainly: EMSA; folded in 200 mM Li+ or K+; EMSA: 20 mM HEPES pH 8.0, 10 mM MgCl2, 1 mM EDTA, 0.5 ug/uL heparin, 1 mM DTT, 1 ug/uL BSA, 10% glycerol, 100 mM KCl or LiCl, 0.75 uM RNA, 30 min 37 C; CD: 10 mM Tris-HCl pH 7.5 + 100/200 mM KCl, protein incubation 30 min 37 C, spectra at 20 C. As to conditions: protein: recombinant; tags: tag-free (expressed from pET-32a-TEV-CNBP, tag removed); no G4 formed; predicted 4-bp stem-loop.

Data set [4] addresses T1, CNBP (ZNF9). The data set is described as follows: EMSA; folded in 100 mM Li+; 100 mM LiCl in binding; slightly higher affinity than in K+; EMSA: 20 mM HEPES pH 8.0, 10 mM MgCl2, 1 mM EDTA, 0.5 ug/uL heparin, 1 mM DTT, 1 ug/uL BSA, 10% glycerol, 100 mM KCl or LiCl, 0.75 uM RNA, 30 min 37 C; CD: 10 mM Tris-HCl pH 7.5 + 100/200 mM KCl, protein incubation 30 min 37 C, spectra at 20 C. As to conditions: protein: recombinant; tags: tag-free (expressed from pET-32a-TEV-CNBP, tag removed); intramolecular G4; minor self-assembled multimer band in Li+.

The target of data set [5] is T1, CNBP (ZNF9). The data set is described as follows: EMSA; folded in 200 mM Li+; 100 mM LiCl in binding; slightly higher affinity than in K+; EMSA: 20 mM HEPES pH 8.0, 10 mM MgCl2, 1 mM EDTA, 0.5 ug/uL heparin, 1 mM DTT, 1 ug/uL BSA, 10% glycerol, 100 mM KCl or LiCl, 0.75 uM RNA, 30 min 37 C; CD: 10 mM Tris-HCl pH 7.5 + 100/200 mM KCl, protein incubation 30 min 37 C, spectra at 20 C. As to conditions: protein: recombinant; tags: tag-free (expressed from pET-32a-TEV-CNBP, tag removed); intramolecular G4 (two-quartet).

B1: -23,877 (structured_RNA)
RNA: GGAUAUGGUUGGUUUGG
Regarding B1, in the data set with CNBP (ZNF9) [1], the binding result was “binds”.

B2: -13,963 (structured_RNA)
RNA: GGAUCUGGGUAAGGAAGG
Consider B2, for which, in the data set with CNBP (ZNF9) [2], the binding result is on record as “binds”.

B3: +28,903 (structured_RNA)
RNA: GGCUGGCAAUGGCGG
Turning to B3, the binding result with CNBP (ZNF9) [3] is recorded as “no binding”.

B4: +3467 (structured_RNA)
RNA: GGAGGAGGUGUUGCAGGA
Turning to B4, in the data set with CNBP (ZNF9) [4], the binding result is recorded as “binds”.

B5: +644 (structured_RNA)
RNA: GGUAAUAAAGGAGCUGGUGG
B5: the binding result with CNBP (ZNF9) [5] is “binds”.

The record behind these values is paper PMC7961906, “CNBP Binds and Unfolds In Vitro G-Quadruplexes Formed in the SARS-CoV-2 Positive and Negative Genome Strands”.
